From patent publication US20240018265A1 (FRIEDRICH MIESCHER INSTITUTE FOR BIOMEDICAL RESEARCH, published 2024) come the findings set out here.

Assay [1] addresses T1, Purified His-tagged human HDAC6 ZnF domain (1108-1215) (human, UniProt Q9UBN7 1108-1215).
T1 construct: range 1108-1215; also called ZnF-UBP; His-HDAC6 ZnF (1108-1215); not shown: His tag from vector pOPINF
T1 sequence (looked up): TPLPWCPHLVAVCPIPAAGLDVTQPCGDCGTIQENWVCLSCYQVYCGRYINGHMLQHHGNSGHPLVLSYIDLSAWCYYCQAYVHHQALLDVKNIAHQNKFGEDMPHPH
Put plainly: pull-down with anti-Flag agarose beads from a mix of His-ZnF (1108-1215), Flag-DARPin and mono-ubiquitin; immunoblot with anti-His, anti-ubiquitin and anti-Flag. An excerpt:
(§1) [0013] (A) Schematic of HDAC6, showing the catalytic domains (CD1, CD2) and the zinc finger domain (ZnF) region that was expressed (amino acids 1108 to 1215) and used to identify binders. Generic nanobody and DARPin structures (PDB:1I3V and PDB:2QJY, respectively) are shown below. […] [0014] […] PD, pull-down; FT, flow-through. [0015] […] A plasmid expressing mRuby was included in all transfections as a control for transfection efficiency (red signal). Scale bar presents […]. [0016] […] [0017] […] Immunoprecipitated material (from D above) was analysed by mass spectrometry and enriched proteins are annotated.
For orientation: Immunoblotting shows a protein as a band on a membrane.

Assay [2] concerns the target T2, endogenous HDAC6 (A549 cells) (human, UniProt Q9UBN7 1-1215).
T2 construct: Endogenous intracellular protein, not a recombinant construct; also called histone deacetylase 6
T2 sequence (looked up): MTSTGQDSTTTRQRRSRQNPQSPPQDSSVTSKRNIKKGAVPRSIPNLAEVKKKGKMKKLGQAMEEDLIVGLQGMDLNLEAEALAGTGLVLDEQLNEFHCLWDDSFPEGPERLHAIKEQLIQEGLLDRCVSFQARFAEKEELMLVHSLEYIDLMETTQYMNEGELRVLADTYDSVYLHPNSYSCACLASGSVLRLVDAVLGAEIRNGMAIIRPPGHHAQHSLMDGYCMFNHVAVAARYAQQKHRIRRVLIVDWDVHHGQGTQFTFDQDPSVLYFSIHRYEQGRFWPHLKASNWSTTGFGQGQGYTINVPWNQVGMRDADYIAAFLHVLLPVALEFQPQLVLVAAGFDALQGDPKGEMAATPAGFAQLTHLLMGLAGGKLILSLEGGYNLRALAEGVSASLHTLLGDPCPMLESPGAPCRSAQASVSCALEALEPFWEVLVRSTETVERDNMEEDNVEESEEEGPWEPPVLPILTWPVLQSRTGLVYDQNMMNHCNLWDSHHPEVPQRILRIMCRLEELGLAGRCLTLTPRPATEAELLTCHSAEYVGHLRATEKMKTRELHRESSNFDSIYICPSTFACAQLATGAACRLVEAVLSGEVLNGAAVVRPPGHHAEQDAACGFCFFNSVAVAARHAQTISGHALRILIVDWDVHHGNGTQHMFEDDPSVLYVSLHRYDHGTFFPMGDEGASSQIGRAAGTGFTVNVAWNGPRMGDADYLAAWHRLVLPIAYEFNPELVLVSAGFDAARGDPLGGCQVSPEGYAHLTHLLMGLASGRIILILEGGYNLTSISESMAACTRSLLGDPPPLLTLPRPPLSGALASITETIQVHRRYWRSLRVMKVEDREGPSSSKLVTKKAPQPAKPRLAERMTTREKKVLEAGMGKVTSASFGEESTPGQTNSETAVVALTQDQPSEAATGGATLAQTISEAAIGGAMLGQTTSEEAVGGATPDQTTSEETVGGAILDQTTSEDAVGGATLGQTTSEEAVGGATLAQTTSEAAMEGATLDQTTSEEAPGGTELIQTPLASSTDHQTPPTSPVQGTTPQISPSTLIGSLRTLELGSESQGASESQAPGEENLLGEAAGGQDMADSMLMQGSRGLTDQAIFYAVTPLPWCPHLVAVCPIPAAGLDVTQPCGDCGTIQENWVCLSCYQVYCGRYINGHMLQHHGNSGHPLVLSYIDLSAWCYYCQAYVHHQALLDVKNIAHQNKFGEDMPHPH
The assay is described as follows: GFP-trap immunoprecipitation of GFP-DARPin F10 against control GFP-DARPin E3_5 from A549 cells, mass spectrometry, volcano plot.
Excerpt: as §1

A further assay concerns the target T3, GFP(10)-ubiquitin (UniProt P0CG48 1-76).
T3 construct: Expressed in 293T cells; not shown: GFP beta strand 10 and any linker
The assay is described as follows: split-GFP assay in 293T cells (specificity control).

B1: Flag-tagged DARPin F10 (F10 with histidine and detection tags) (designed binder)
chain: MRGSHHHHHHHHGSDLGKKLLEAARAGQDDEVRILMANGADVNANDRNGVTPLHLAADKGHLEIVEVLLKTGADVNAIDIMGATPLHLAAAHGHLEIVEVLLKAGADVNAMDHKGFTPLHLAAWRGHLEIVEVLLKHGADVNAQDKFGKTPFDLAIDNGNEDIAEVLQKAAKLNDYKDDDDK
As to B1, in assay [1], the binding result was “binds”.

B2: GFP-DARPin F10 fusion protein (designed binder)
chain: DLGKKLLEAARAGQDDEVRILMANGADVNANDRNGVTPLHLAADKGHLEIVEVLLKTGADVNAIDIMGATPLHLAAAHGHLEIVEVLLKAGADVNAMDHKGFTPLHLAAWRGHLEIVEVLLKHGADVNAQDKFGKTPFDLAIDNGNEDIAEVLQKAA
notes: Transiently expressed in A549 cells from pcDNA3.1-GFP-DARPin F10; not shown: GFP and any linker
On to B2, for which, in assay [2], the binding result is reported as “binds”.

B3: GFP(11)-HDAC6 ZnF (1108-1215) W1182A mutant (other, human, UniProt Q9UBN7 1108-1215, looked up)
chain: TPLPWCPHLVAVCPIPAAGLDVTQPCGDCGTIQENWVCLSCYQVYCGRYINGHMLQHHGNSGHPLVLSYIDLSAACYYCQAYVHHQALLDVKNIAHQNKFGEDMPHPH
notes: range 1108-1215; Specificity control in the split-GFP assay; also called ZnFm; 1182 mutant; not shown: GFP beta strand 11 and any linker
For B3, the binding result in the assay with GFP(10)-ubiquitin is reported as “no binding”.
